Test results published in US20200199214A1 (Hoffmann-La Roche, published 2020).

Legend:
[1] = biological target: T1, human IL-1 beta (PeproTech 200-01B) (human, UniProt P01584 117-269); experiment: SPR competition: Fab (from 200 nM, 1:2 dilutions) preincubated with 50 nM IL-1beta, injected over immobilised IL-1bR1 (competitor); without VEGF
T1 construct: As printed it covers only the N-terminal part of the precursor, so it was not used; also called huIL-1 beta; IL1β
Method: As running and dilution buffer, HBS-P+(10 mM HEPES, 150 mM NaCl pH 7.4, 0.05% Surfactant P20) was used.
For assessing VEGF-receptor binding inhibition, a final concentration of 200 nM of R07200394 or 400 nM antibody 0032 was preincubated with 50 nM VEGF121. For assessing IL-1beta-receptor binding inhibition, a final concentration of 200 nM of R07200394 or 200 nM antibody 0032 was with preincubated with 50 nM IL-1beta. Samples were diluted (1:2) in the corresponding 50 nM VEGF121 or IL-1beta solution.
The antibody/ligand mixtures were injected onto the VEGFR2 or IL-1R1 surface for 60 s at a flow rate of 5 μl/min. After a dissociation phase for 60 s, the VEGFR2 surface was regenerated by injecting 5 mM NaOH for 60 s, whereas the IL-1R1 surface was regenerated by injecting 10 mM Glycine pH 3.0 followed by 5 mM NaOH for 60 s each. Bulk refractive index differences were corrected by subtracting blank injections and by subtracting the response obtained from the blank control flow cell. For evaluation, the binding response 5 seconds after inject end was taken. The derived response in RU was transformed to a binding response relative to the initial signal corresponding to the ligand(s) without antibody. IC50 values were calculated using a 4 parameter logistic model (XLfit, ID Business Solutions Ltd.)

[2] = biological target: T2, cynomolgus IL-1 beta (Sino Biological 90010-CNAE) (cynomolgus, UniProt P79182 117-268); experiment: SPR, Fab captured via anti-Fab antibody, cynomolgus IL-1beta injected, 1:1 Langmuir fit
T2 sequence (looked up): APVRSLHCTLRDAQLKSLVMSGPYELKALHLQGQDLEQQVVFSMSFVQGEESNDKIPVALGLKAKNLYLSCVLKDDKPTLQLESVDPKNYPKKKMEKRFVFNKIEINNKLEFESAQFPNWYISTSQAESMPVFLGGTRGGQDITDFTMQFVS
Method: (§1) An anti-Fab capturing antibody (GE Healthcare 28958325) was immobilized to a Series S Sensor Chip C1 (GE Healthcare 29104990) using standard amine coupling chemistry resulting in a surface density of approximately 500 resonance units (RU). The bispecific anti-VEGF/anti-IL-1beta Fab fragment was captured to the surface with resulting capture levels of approximately 20 RU. A dilution series ranging from 0.74 to 60 nM (1:3 dilution) of either human IL-1 beta (PeproTech 200-01B) or cynomolgus IL-1 beta (Sino Biological 90010-CNAE) was injected for 90 s, dissociation was monitored for at least 600 s at a flow rate of 30 μl/min. The surface was regenerated by two consecutive injections of 10 mM Glycine pH 2.1 for 60 s each. Bulk refractive index differences were corrected by subtracting blank injections and by subtracting the response obtained from the control flow cell without captured bispecific anti-VEGF/anti-IL-1beta Fab fragment. Curve fitting was performed using the 1:1 Langmuir binding model within the Biacore evaluation software.
(§2) Binding kinetics to VEGF and IL-1beta for the candidate antibodies were assessed as described in Example 3 using the indicated bispecific anti-VEGF/anti-IL-1beta Fab fragments (amino acid sequence as illustrated in Table 3). For comparison, antigen binding kinetics of prior art anti-VEGF/anti-IL-1beta antibody 0032, a full length IgG antibody, as disclosed in WO2016/075034 are depicted.

[3] = biological target: T1, human IL-1 beta (PeproTech 200-01B); experiment: SPR, Fab captured via anti-Fab antibody, human IL-1beta injected, 1:1 Langmuir fit
Method: as §1, §2

VEGF165 = biological target: T3, VEGF165 (UniProt P15692-4 27-191); experiment: competition ELISA: Fab preincubated with VEGF165, free VEGF165 bound to coated rhVEGFR-1-Fc detected; sheet title 'Competition ELISA VEGFR1-Fc, 8 pM VEGF165'
T3 construct: also called VEGF165 (Humanzyme, HZ-1153)
Method: 96-well-Plates (Maxisorp Nunc-Immoplates) were coated with 50 μL/well rhVEGFR-1-Fc (R&D #321-FL-050) at a final concentration of 1 μg/ml in 200 mM NaHC0₃, pH 9.4 for 1 hour at room temperature.
Meanwhile, antibody Fab fragments of different concentrations were preincubated with VEGF for form an antibody Fab-VEGF premix as follows: A dilution series of antibody Fab fragment was prepared by adding 280 μl of a solution of antibody Fab fragments (409.6 nM antibody in PBST-1% BSA) into the wells of the first column of a round bottom 96-well PS plate. The individual wells of columns 2-12 of the same plate were filled with 140 μl PBST-1% BSA. Subsequently, 1:2 dilutions were performed by transferring 140 μl of the antibody solution into the next column, thorough mixing and proceed with transferring 140 μl of this diluted antibody solution to the next column. This is repeated until column 11. Excess of 140 μl were discarded so that all wells comprise 140 μl. Column 12 served as the control (blank). […] 50 μl of the dilution series of the respective antibody Fab fragment were added to the VEGF121, or VEGF165, respectively; mixed thoroughly and incubated for 1.5 hours at room temperature.
The rhVEGFR-1-Fc coated plates were washed two times with PBST and blocked for 45 min with 200 μl of 2% MPBST. After washing off the MPBST solution twice with PBST, 50 μl of the antibody Fab-VEGF premix were added to the plate and incubated for 1.5 hours at room temperature. Subsequently, the plates were washed twice with PBST. Then, 50 μl of a solution comprising biotinylated anti-VEGF antibody (R&D, BAF293; 1:2000 dilution in PBST) and SA-HRP (KPL, 14-30-00; 1:2000 dilution in PBST) was added and incubated for 30 min at room temperature. After 6× washing with PBST, 50 μl of TMB substrate solution (two-component HRP substrate (KPL, 34021); used at room temperature) was added and incubated for 30 min at room temperature. 50 μl of 1N H₂SO₄ was added and absorbance was read at 450 nm.

B1: bispecific anti-VEGF/anti-IL-1beta Fab fragment RO7200394 (Fab, V domains shown)
VH: DEQLVESGGGLVKPGGSLRLSCAAEGMVFKWNDMSWVRQAPGKGLEWVGSISKKGDHKYLNTKFIGRFTISRDNEKDTLYLQMNSLRAEDTAVYYCAKDVGFFDIWGQGTLVTVSS
VL: AIYMHQEPSSLSASVGDRVTITCHGSYWLSSLVAWYQQKPGKAPKLLIYDAKYKHLGVPSRFSGSKEDQEFTLTISSLQPEDFATYYCQQYRYHPYTFGHGTKVEIKR
notes: same variable domains as 1HVL12.85; also called R07200394
IC50 [1]: 22 nM | Kd [2]: 0.027 nM | koff [2]: 7.94e-05 s⁻¹ | kon [2]: 2.97e+06 M⁻¹ s⁻¹ | t½ [2]: 146 min | Kd [3]: 0.021 nM | koff [3]: 0.000102 s⁻¹ | kon [3]: 4.73e+06 M⁻¹ s⁻¹ | t 1/2 [3]: 114 min | IC50 (read off the curve) (VEGF165): ~0.09 nM
